Reference: IntAct's records for PubMed 16938345

B1: Linker for activation of T-cells family member 1 (Homo sapiens), O43561 (parent)
chain: MEEAILVPCVLGLLLLPILAMLMALCVHCHRLPGSYDSTSSDSLYPRGIQFKRPHTVAPWPPAYPPVTSYPPLSQPDLLPIPRSPQPLGGSHRTPSSRRDSDGANSVASYENEGASGIRGAQAGWGVWGPSWTRLTPVSLPPEPACEDADEDEDDYHNPGYLVVLPDSTPATSTAAPSAPALSTPGIRDSAFSMESIDDYVNVPESGESAEASLDGSREYVNVSQELHPGAAKTEPAALSSQEAEEVEEEGAPDYENLQELN

Variants of: B1
Conditions: with grb2_human GRB2, P62993

effect of a mutation on the interaction | Variant
decreasing interaction | MEEAILVPCVLGLLLLPILAMLMALCVHCHRLPGSYDSTSSDSLYPRGIQFKRPHTVAPWPPAYPPVTSYPPLSQPDLLPIPRSPQPLGGSHRTPSSRRDSDGANSVASYENEGASGIRGAQAGWGVWGPSWTRLTPVSLPPEPACEDADEDEDDYHNPGYLVVLPDSTPATSTAAPSAPALSTPGIRDSAFSMESIDDFVNVPESGESAEASLDGSREFVNVSQELHPGAAKTEPAALSSQEAEEVEEEGAPDYENLQELN [Y200F;Y220F]
